# Experimental data published in the DeepSol protein solubility set.
# Experiment: soluble on expression in E. coli; label from the status in PepcDB or PDB records
row,Sequence,soluble on expression in E. coli
1,MSLSSDSQEIRRSILSKWHKTLSKYGNLFSSDTISGTSPPSVFVGSYNYPKVFVGPMVPPIHGDTSLLDSPEKWKGRSLEEIINFRLNLVRGIHKTGIEHTEGRYIENLQEITMSEKPTDLDLVFMKNTSSNISMDGESAPFGPTGEIKSAKFSGSSSTKPIEKIFYDKDMKAQDAVLKLYNSGIEISKIQKCFSIGMLGKKRKLVPTKWSITATDDIISKSIVKEILENSIIDTCKVFSYEHLGNVFSVILFPHRWIFEMIEGWYSNGILGFGSDSEDARGIDHPPRIAGAYFAAKLGVSEYLLKNKIQAGVLIFREIRPEYAIPVGVWQVREGIREAMKQKPQIVSDFNHALNLASAKTSVSKKEWIVNGDMINRVRQKTILDFMEGHHHHHH,not soluble
2,MSLNNLNTNIDFIKKSPKTELHLHIEGSLEPELMFKLSKRNKIEIPFKSVDEIRSAYNFTNLDSFLKIYYEGSNVLIREEDFFDLTWEYVLRCKQDNIVHTEIFFDPQSHLPRGISFETVINGIDKALKKAEKDFGISSKIIMCFLRHLDEESCFDVLKKAFDHKDKIIGVGLDSSEKGNPPSKFKRLFEQAVKEGFITVAHAGEEGPPEYIWDSLDILKVKRIDHGVQCLNDEKLVNKLVKEQIPLTVCPLSNVKLCVFDKLENHNLKKMLDKGLRVMVNSDDPAYFGGYLNKNLIETSRALNLNLVDIKKLIENSFKSSFLEKEKKENWLKKINEGHHHHHH,soluble
3,GPGSMSEYADCTEVAKKALEFRQQFYQLLDNPERRGDIVALYAPNTPLLCEWNGHALPDTASIAAYLGGLPRTNHKVDCVDAQPLPGNERADSFLMTVHGVVTYDDEHKREFFQRFVIRKVEERYYIMNDYYRWLSEKE,not soluble
4,MSLSETLTLSDAKSIIENQIEELAKRNKEPEWMTKIRYKALEEFMKAPLNDPVIDEETLLNFIAKPEIEGIPEKVESLDDLPPEMKDLLDRLGINEVEQKYIAGLAVQTDTGVIYNQFLQEWAKKGLIVLPTEEAVRRYPDIMKEHFLKLFKAGESKLTAYHIAIWNGGIFLYVKENLKVPFPLHLFFLIQESSLAQAPHITIIAEKNSEVHLIEGCTAPILVRHSLHLDMTEAYLHENAKVRLTVLQNWPEYVHTRPMTRAKVGRNAEFINTTVSLGAGKSNIANPKYWVGENGYVELNGVILGQKDWYIDLGGEMHLQGEGGRGINASKSVIMDESTVITRGKIVAEAKKTKGHISCDALLLSDKARMETYPGLVSLVDEAELSHEAAIGKIKEEELFYLMSRGLSEEKATQLIVKGFVEPMLKDIPIEFVVEIKKIIELAVSGGFEGHHHHHH,soluble
5,MILGPDGKPIKKPETSEIARVLHTFSAFMKSLPNPDIILKKTGKTAEIFEEMKTDAHVWAELTKRKSGVLSKDWDILPASNDRRDLEIAAFVKETFERLNFDQDMRTKTCGKCSMPCSRAGTCTN,not soluble
6,MSEQITFATSDFASNPEPRCPCILLLDVSGSMSGRPINELNTGLVTFRDELLADSLALKRVELGIVTFGPVHVEQPFTSAANFFPPILFAQGDTPMGAAITKALDMVEERKREYRANGISYYRPWIFLITDGAPIDEWQAAANKVFRGEEDKRFAFFSIGVQGADMKTLAQISVRQPLPLQGLQFRELFSWLSSSLRSVSRSTPGTEVVLEAPKGWTSV,not soluble
7,MASSVDEEALHQLYLWVDNIPLSRPKRNLSRDFSDGVLVAEVIKFYFPKMVEMHNYVPANSLQQKLSNWGHLNRKVLKRLNFSVPDDVMRKIAQCAPGVVELVLIPLRQRLEERQRRRKQGAGSLQELAPQDGSGYMDVGKVAFSISPSRLELSFCPSSCHL,not soluble
8,GPGSMNFTQQLWSVKEWGRVMATRSEYVQIVHDATNDEKWGPTGPQMDAVCNAYPRGGPEILNELRTRLNNRDKSWRPCYKSLLVIDYLARNVDDRYLPEISALVPIIRTISTSFYYTNPKGVDHGVSVRERAKKVADLLSDGLQLREERMVAAQIKAKLSHNASDGGGPNSDAPYSGAGSYGGSRDCDRYRSYVKGSRQAYDSYRSSPPPSAVLSRPRTKEEQERCDMEMALRLQRDEERRSGVSAEQLEEMYAT,soluble
9,MGSDKIHHHHHHMPSDASRRLYERLGIPLLPMDSPFGPEYPIGNKFAALALGPAVGHTLFLDSDMICVDAFEADMLCRFDAALKPADMALVAKQNDYWERIYAHAGSALPGDRVVTTCSGEAMPAYYNAGFILVRDARRFAEVWYRLAERVHADPLITNKMPWLDQLTLPVALHALNYKTRALSERFNYPLHIKPLSAASLPPFFCHYHSLDTLVSERSLWAELDELAKRFPELREVLALDANWKKAILAPAPRLAFSEGDSTGTVEAGQDLVITGIPRSGTSHLCRLLSQQPDTVVLNEPPQVFEALKLSPLPWGLPRYYAELRRDILAGRPVPNKHVNGRLVDDTARGNDQSSDYFAEVRGASFHLGTKNTLAYIARLPLIRKVMPTALLIATIRHPYDTLNSWANTFEHLRQAAVERQPFGCPDDLALTGWQRKALLAIADTDHLAVRRALWWRYLALQLEDAGDYVQLLRYEDFVEAPQTTLAALRNNRPLPFDEPAVWSKGLAPDEQELVANIVCDVAERFHYVL,not soluble
10,MRDSPTHKEQRAQNTMSDQMPFPFNNFTYFFTLFSKFFSSFHHCTCSLSVSRQYLALDGIYHPLRAAFPNNSTLRRHFTKNRTPRHTGFSPSMTSCSKEHRQGTAPKLPSPNYNSGTEGTRFQI,not soluble
11,MAHHHHHHMAPVIPKSSNEGKDYSVASGSVDTPVLDQLVGYYVNIQSRKMYYKDFLRIEHQAVRWAFADIRKNSEALAHGLLQTGLRPGQRVLAIQPCNCETFVLQLACAKIGALLAVVPHHNISADKLRFYLNEFQPHHLIAREWIVVPEVKQGVLVERNMHFWDMIYNVIPELGLSYPGQRFQWVHSQEFFFLKKVVITDHNMNLLGVTPMRKMLVWGPFSYYEQRLRRLSALLHPDDPILALEDPHPALEDKLHITYSHRNCINAGFLFGNLMGLKAESRFGVMPNHHVDPVGAIVAPYAALTTGAVLVHIHSDMFTDDHAINGIEKLCVEEVVGMLGKKSDFDLLLRHAGNFDADQYEHLKWVVLFEDASEPTVGDEYLQKLAKELGLEDVFVFRGPLESAYMVMWRSLKRARWEMVPHVEAKVVGDRGTADARILAANTRGNLKLKGPHISAGYYNNAGLLTELVDERGFCSTSREAVMDERGQLTLHGTQLY,not soluble
12,MWGETFDDFENDEGEMAMAKQNLIAEPARADFTFAKLPLGIQPVDFMKTHFAETAGKSMQFRKGTTTLAFVYEPATPADKGGIIVAVDSRASSGEYISSKSVMKILDIGDRMVATMAGGAADCQFWTRIVAKYCTLYELREKTSITVSAASKYFANTLYGYRGQGLSVGSMVAGYDKKGPQIFKVDSEGDRCQLKVCSVGSGSLNAYGILDNHYKPKMTDDEARKLGLRAIMHATYRDSGSGGVCNLCHITPTEKIRLPPMDVSKLWYEFADELGRDITYNPVE,soluble
13,MSLAIEKELLDQLLAGRDPSEVFGKDGLLDDLKKALSERILNAELDDHLDVERLEGGPANRRNGSSKKTVLTGTSKMTLTIPRDRAGTFDPKLIARYQRRFPDFDDKIISMYARGMTVREIQGHLEELYGIDVSPDLISAVTDTVLEAVGEWQNRPLELCYPLVFFDAIRVKIRDEGFVRNKAVYVALAVLADGSKEILGLWIEQTEGAKFWLRVMNELKNRGCQDILIAVVDGLKGFPEAITAVFPQTIVQTCIVHLIRHSLEFVSYKDRRTVVPALRAIYRARDAEAGLKALEAFEEGYWGQKYPAIAQSWRRNWEHVVPFFAFPEGVRRIIYTTNAIEALNSKLRRAVRSRGHFPGDEAAMKLLYLVLNNAAEQWKRAPREWVEAKTQFAVIFGERFFNEGHHHHHH,soluble
14,MNRQELITEALKARDMAYAPYSKFQVGAALLTKDGKVYRGCNIENAAYSMCNCAERTALFKAVSEGDTEFQMLAVAADTPGPVSPCGACRQVISELCTKDVIVVLTNLQGQIKEMTVEELLPGAFSSEDLHDERKL,soluble
15,GAMESHPHIQLLKSNRELLVTHIRNTQCLVDNLLKNDYFSAEDAEIVCACPTQPDKVRKILDLVQSKGEEVSEFFLYLLQQLADAYVDLRPWLLEIGFSPSLLTQSKVVVNTDPVSRYTQQLRHHLG,soluble
16,SSRAKRIMKEIQAVKDDPAAHITLEFVSESDIHHLKGTFLGPPGTPYEGGKFVVDIEVPMEYPFKPPKMQFDTKVYHPNISSVTGAICLDILRNAWSPVITLKSALISLQALLQSPEPNDPQDAEVAQHYLRDRESFNKTAALWTRLYASETSNGQKGNVEESDLYGIDHDLIDEFESQGFEKDKIVEVLRRLGVKSLDPNDNNTANRIIEELLK,soluble
